Like-named read-outs stand apart in the source and are kept apart here.
B7: RapH (enzyme, B. subtilis)
chain: GSMSQAIPSSRVGVKINEWYKMIRQFSVPDAEILKAEVEQDIQQMEEDQDLLIYYSLMCFRHQLMLDYLEPGKTYGNRPTVTELLETIETPQKKLTGLLKYYSLFFRGMYEFDQKEYVEAIGYYREAEKELPFVSDDIEKAEFHFKVAEAYYHMKQTHVSMYHILQALDIYQNHPLYSIRTIQSLFVIAGNYDDFKHYDKALPHLEAALELAMDIQNDRFIAISLLNIANSYDRSGDDQMAVEHFQKAAKVSREKVPDLLPKVLFGLSWTLCKAGQTQKAFQFIEEGLDHITARSHKFYKELFLFLQAVYKETVDERKIHDLLSYFEKKNLHAYIEACARSAAAVFESSCHFEQAAAFYRKVLKAQEDILKGECLYAY
notes: two heterologous N-terminal residues (Gly-Ser) derived from the thrombin cleavage signal; RapH, B. subtilis strain 168, residues 1-376 (MW theor 44.1 kDa); Dimer in the crystal and in solution; also called RapHA; RapHB; source: E. coli BL21, purified (glutathione resin, thrombin, Source 15Q, Superdex 200; dialysis instead of gel filtration for the phosphatase and phosphotransfer assays); not …

Legend:
[1] = biological target: T1, Spo0F~P (radiolabeled phosphorylated Spo0F-His) (B. subtilis) (UniProt P06628)
T1 sequence (chain, phosphoaspartate-54 (32P)): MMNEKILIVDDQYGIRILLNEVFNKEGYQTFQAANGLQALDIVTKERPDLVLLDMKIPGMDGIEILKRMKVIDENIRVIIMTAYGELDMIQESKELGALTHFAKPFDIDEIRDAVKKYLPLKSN

RapH [2] = biological target: B7; assay: crystal structure; vapor diffusion at 20°C; 7.5 mg/ml RapH and 3.5 mg/ml Spo0F in 20 mM Tris-HCl (pH 8.0), 100 mM KCl, 2.5 mM DTT, 5 mM MgCl2; well 20% PEG 3350, 200 mM lithium sulphate, 100 mM Bis-Tris (pH 6.0); refined to 2.20 Å; settings: both partners purified
RapH [3] = biological target: B7; assay: crystal structure; crystals of native RapH with selenomethionyl Spo0F(D54E), as the native crystals but Bis-Tris at pH 5.8; SAD phasing, initial model at 2.70 Å; isomorphous to the native crystals; settings: both partners purified
[4] = biological target: T1, Spo0F~P (radiolabeled phosphorylated Spo0F-His) (B. subtilis); remark: listed apart in the source
[5] = biological target: the molecule itself; assay: crystal structure; vapor diffusion at 20°C; 7.5 mg/ml RapH and 3.5 mg/ml Spo0F in 20 mM Tris-HCl (pH 8.0), 100 mM KCl, 2.5 mM DTT, 5 mM MgCl2; well 20% PEG 3350, 200 mM lithium sulphate, 100 mM Bis-Tris (pH 6.0); refined to 2.20 Å
[6] = biological target: T1, Spo0F~P (radiolabeled phosphorylated Spo0F-His) (B. subtilis); remark: listed apart in the source
[7] = biological target: T2, RapJ (B. subtilis), O34327; assay: SEC; size exclusion chromatography with gel filtration standards; experimental against theoretical molecular weight; settings: remark: other sources report otherwise
T2 chain: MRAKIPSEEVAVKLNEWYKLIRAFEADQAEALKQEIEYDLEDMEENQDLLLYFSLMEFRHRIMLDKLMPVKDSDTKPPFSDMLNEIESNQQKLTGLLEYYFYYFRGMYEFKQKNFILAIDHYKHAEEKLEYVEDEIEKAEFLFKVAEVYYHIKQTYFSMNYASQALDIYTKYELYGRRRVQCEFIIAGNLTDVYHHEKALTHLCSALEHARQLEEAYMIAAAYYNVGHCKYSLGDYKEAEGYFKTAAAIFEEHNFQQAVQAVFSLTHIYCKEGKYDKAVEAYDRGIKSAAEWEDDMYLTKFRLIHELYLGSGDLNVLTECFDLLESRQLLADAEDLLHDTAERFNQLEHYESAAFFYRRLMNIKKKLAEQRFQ

B1: RapF-H50L (enzyme)
chain: MTGVISSSSIGEKINEWYMYIRRFSIPDAEYLRREIKQELDQMEEDQDLLLYYSLMEFRHNLMLEYLEPLEKMRIEEQPRLSDLLLEIDKKQARLTGLLEYYFNFFRGMYELDQREYLSAIKFFKKAESKLIFVKDRIEKAEFFFKMSESYYYMKQTYFSMDYARQAYEIYKEHEAYNIRLLQCHSLFATNFLDLKQYEDAISHFQKAYSMAEAEKQPQLMGRTLYNIGLCKNSQSQYEDAIPYFKRAIAVFEESNILPSLPQAYFLITQIHYKLGKIDKAHEYHSKGMAYSQKAGDVIYLSEFEFLKSLYLSGPDEEAIQGFFDFLESKMLYADLEDFAIDVAKYYHERKNFQKASAYFLKVEQVRQLIQGGVSLYEIEV
- Spo0F~P remaining after 30 min, in vitro phosphatase assay (26 uM RapF); RapF-H50L dephosphorylates Spo0F (% of Spo0F~P remaining) [1]: 16

B2: RapF (natural protein)
chain: MTGVISSSSIGEKINEWYMYIRRFSIPDAEYLRREIKQELDQMEEDQDLHLYYSLMEFRHNLMLEYLEPLEKMRIEEQPRLSDLLLEIDKKQARLTGLLEYYFNFFRGMYELDQREYLSAIKFFKKAESKLIFVKDRIEKAEFFFKMSESYYYMKQTYFSMDYARQAYEIYKEHEAYNIRLLQCHSLFATNFLDLKQYEDAISHFQKAYSMAEAEKQPQLMGRTLYNIGLCKNSQSQYEDAIPYFKRAIAVFEESNILPSLPQAYFLITQIHYKLGKIDKAHEYHSKGMAYSQKAGDVIYLSEFEFLKSLYLSGPDEEAIQGFFDFLESKMLYADLEDFAIDVAKYYHERKNFQKASAYFLKVEQVRQLIQGGVSLYEIEV
- Spo0F~P remaining after 30 min, in vitro phosphatase assay (26 uM RapF); wild-type RapF does not dephosphorylate Spo0F (% of Spo0F~P remaining) [1]: 54

B3: Spo0F (natural protein, B. subtilis)
chain: GSMMNEKILIVDDQYGIRILLNEVFNKEGYQTFQAANGLQALDIVTKERPDLVLLDMKIPGMDGIEILKRMKVIDENIRVIIMTAYGELDMIQESKELGALTHFAKPFDIDEIRDAVKKYLPLKSN
notes: two heterologous N-terminal residues (Gly-Ser) derived from the thrombin cleavage signal; Spo0F, B. subtilis strain 168, residues 1-124; The methods name the vector pETDuet-1 but purify over glutathione resin and remove a GST tag; also called Spo0FA; Spo0FB; source: E. coli BL21(DE3), purified (glutathione resin, thrombin, Source 15Q and HiTrap Heparin flow-through, Superdex 200); …
- binding result (RapH [2]): binds

B4: selenomethionyl Spo0F-D54E (natural protein, B. subtilis)
chain: GSMMNEKILIVDDQYGIRILLNEVFNKEGYQTFQAANGLQALDIVTKERPDLVLLEMKIPGMDGIEILKRMKVIDENIRVIIMTAYGELDMIQESKELGALTHFAKPFDIDEIRDAVKKYLPLKSN
modifications: selenomethionyl (selenomethionine derivatized)
notes: two heterologous N-terminal residues (Gly-Ser) derived from the thrombin cleavage signal; purified in an identical manner to Spo0F; Spo0F, B. subtilis strain 168, residues 1-124, with D54E; Used for SAD phasing; PDB 3Q15 holds the parent (wild-type Spo0F); source: E. coli BL21(DE3), purified as Spo0F (buffer D with 120 mM MgCl2); not shown: GST, N-terminal, cleaved
- binding result (RapH [3]): binds

B5: RapH-E137A (enzyme)
chain: GSMSQAIPSSRVGVKINEWYKMIRQFSVPDAEILKAEVEQDIQQMEEDQDLLIYYSLMCFRHQLMLDYLEPGKTYGNRPTVTELLETIETPQKKLTGLLKYYSLFFRGMYEFDQKEYVEAIGYYREAEKELPFVSDDIAKAEFHFKVAEAYYHMKQTHVSMYHILQALDIYQNHPLYSIRTIQSLFVIAGNYDDFKHYDKALPHLEAALELAMDIQNDRFIAISLLNIANSYDRSGDDQMAVEHFQKAAKVSREKVPDLLPKVLFGLSWTLCKAGQTQKAFQFIEEGLDHITARSHKFYKELFLFLQAVYKETVDERKIHDLLSYFEKKNLHAYIEACARSAAAVFESSCHFEQAAAFYRKVLKAQEDILKGECLYAY
- Spo0F~P remaining after 40 min, in vitro phosphatase assay (wild-type control 7%) (% of Spo0F~P remaining) [4]: 15

B6: RapH-Y175A (enzyme)
chain: GSMSQAIPSSRVGVKINEWYKMIRQFSVPDAEILKAEVEQDIQQMEEDQDLLIYYSLMCFRHQLMLDYLEPGKTYGNRPTVTELLETIETPQKKLTGLLKYYSLFFRGMYEFDQKEYVEAIGYYREAEKELPFVSDDIEKAEFHFKVAEAYYHMKQTHVSMYHILQALDIYQNHPLASIRTIQSLFVIAGNYDDFKHYDKALPHLEAALELAMDIQNDRFIAISLLNIANSYDRSGDDQMAVEHFQKAAKVSREKVPDLLPKVLFGLSWTLCKAGQTQKAFQFIEEGLDHITARSHKFYKELFLFLQAVYKETVDERKIHDLLSYFEKKNLHAYIEACARSAAAVFESSCHFEQAAAFYRKVLKAQEDILKGECLYAY
- Spo0F~P remaining after 30 min, in vitro phosphatase assay (wild-type control 3%) (% of Spo0F~P remaining) [4]: 54

Binder: B7
- stoichiometry N [5]: 2

B8: RapH-F58A (enzyme)
chain: GSMSQAIPSSRVGVKINEWYKMIRQFSVPDAEILKAEVEQDIQQMEEDQDLLIYYSLMCARHQLMLDYLEPGKTYGNRPTVTELLETIETPQKKLTGLLKYYSLFFRGMYEFDQKEYVEAIGYYREAEKELPFVSDDIEKAEFHFKVAEAYYHMKQTHVSMYHILQALDIYQNHPLYSIRTIQSLFVIAGNYDDFKHYDKALPHLEAALELAMDIQNDRFIAISLLNIANSYDRSGDDQMAVEHFQKAAKVSREKVPDLLPKVLFGLSWTLCKAGQTQKAFQFIEEGLDHITARSHKFYKELFLFLQAVYKETVDERKIHDLLSYFEKKNLHAYIEACARSAAAVFESSCHFEQAAAFYRKVLKAQEDILKGECLYAY
- Spo0F~P remaining after 30 min, in vitro phosphatase assay (wild-type control 3%) (% of Spo0F~P remaining) [6]: 28

B9: RapH-L50A (enzyme)
chain: GSMSQAIPSSRVGVKINEWYKMIRQFSVPDAEILKAEVEQDIQQMEEDQDLAIYYSLMCFRHQLMLDYLEPGKTYGNRPTVTELLETIETPQKKLTGLLKYYSLFFRGMYEFDQKEYVEAIGYYREAEKELPFVSDDIEKAEFHFKVAEAYYHMKQTHVSMYHILQALDIYQNHPLYSIRTIQSLFVIAGNYDDFKHYDKALPHLEAALELAMDIQNDRFIAISLLNIANSYDRSGDDQMAVEHFQKAAKVSREKVPDLLPKVLFGLSWTLCKAGQTQKAFQFIEEGLDHITARSHKFYKELFLFLQAVYKETVDERKIHDLLSYFEKKNLHAYIEACARSAAAVFESSCHFEQAAAFYRKVLKAQEDILKGECLYAY
- Spo0F~P remaining after 30 min, in vitro phosphatase assay (wild-type control 13%) (% of Spo0F~P remaining) [6]: 26

B10: RapH-D134A (enzyme)
chain: GSMSQAIPSSRVGVKINEWYKMIRQFSVPDAEILKAEVEQDIQQMEEDQDLLIYYSLMCFRHQLMLDYLEPGKTYGNRPTVTELLETIETPQKKLTGLLKYYSLFFRGMYEFDQKEYVEAIGYYREAEKELPFVSADIEKAEFHFKVAEAYYHMKQTHVSMYHILQALDIYQNHPLYSIRTIQSLFVIAGNYDDFKHYDKALPHLEAALELAMDIQNDRFIAISLLNIANSYDRSGDDQMAVEHFQKAAKVSREKVPDLLPKVLFGLSWTLCKAGQTQKAFQFIEEGLDHITARSHKFYKELFLFLQAVYKETVDERKIHDLLSYFEKKNLHAYIEACARSAAAVFESSCHFEQAAAFYRKVLKAQEDILKGECLYAY
- Spo0F~P remaining after 30 min, in vitro phosphatase assay (wild-type control 3%) (% of Spo0F~P remaining) [4]: 13

B11: RapJ, O34327 1-373 (enzyme)
chain: MRAKIPSEEVAVKLNEWYKLIRAFEADQAEALKQEIEYDLEDMEENQDLLLYFSLMEFRHRIMLDKLMPVKDSDTKPPFSDMLNEIESNQQKLTGLLEYYFYYFRGMYEFKQKNFILAIDHYKHAEEKLEYVEDEIEKAEFLFKVAEVYYHIKQTYFSMNYASQALDIYTKYELYGRRRVQCEFIIAGNLTDVYHHEKALTHLCSALEHARQLEEAYMIAAAYYNVGHCKYSLGDYKEAEGYFKTAAAIFEEHNFQQAVQAVFSLTHIYCKEGKYDKAVEAYDRGIKSAAEWEDDMYLTKFRLIHELYLGSGDLNVLTECFDLLESRQLLADAEDLLHDTAERFNQLEHYESAAFFYRRLMNIKKKLAEQRFQ
- stoichiometry N [7]: 2
